Data published in article PMC6104945 (2018).

B1: NHBA_(312-427) (Neisserial heparin binding antigen, peptide 20, residues M312-D427) [Neisseria meningitidis (strain 2996)] / Fab 5H2 (Fab derived from the vaccine-elicited human monoclonal antibody 5H2) [human] (parent complex)
chain 1: MLAGTAVYNGEVLHFHTENGRPYPTRGRFAAKVDFGSKSVDGIIDSGDDLHMGTQKFKAAIDGNGFKGTWTENGGGDVSGRFYGPAGEEVAGKYSYRPTDAEKGGFGVFAGKKEQD
chain 2: not shown
chain 3: EIVMTQTPSSLSASVGDRVTITCRASQSISNYLNWYQQKPGTAPKLLTYAASSLGSGVPSRFSGSGSGTDLTLTISSLRPEDFATYYCQQSYGSPTFGQGTKLEIRRTVAAPSVFIFPPSDEQLKSGTASVVCLLNNFYPREAKVQWKVDNALQSGNSQESVTEQDSKDSTYSLSSTLTLSKADYEKHKVYACEVTHQGLSSPVTKSFNRGEC

Variants of: B1
Test: SPR; Fab 5H2 captured on sensor chip, NHBA312-427 mutant injected; response read at end of injection (~48 s); read off a plot
chain 1 R28A showed a response of roughly 2 RU.
chain 1 R28G showed a response of roughly 30 RU.
In the case of chain 1 K56A, the response is reported as roughly 58 RU.
In the case of chain 1 E11A, chain 1 E114A, the response is reported as roughly 51 RU.
chain 1 R28G, chain 1 K56A showed a response of roughly 5 RU.
chain 1 D49A, chain 1 T54A showed a response of roughly 42 RU.
In the case of chain 1 R28A, chain 1 K56A, the response is reported as roughly 3 RU.
